Data from patent publication US20230037911A1 (SHANGHAI HENLIUS BIOTECH, published 2023).
Positions count from the first letter of the chain named. In names and notes the source's numbering stands.

Key:
[1] = target: T1, human TIGIT stably expressed on cells (Jurkat; 293T) (human, UniProt Q495A1 22-244); test: flow cytometry on Jurkat cells stably expressing h-TIGIT; VHH samples heated at 25 to 70 °C for 60 min (thermostability); concentration not given
T1 construct: the expression vector's insert is not described further; also called h-TIGIT; human TIGIT transfected Jurkat cells
T1 sequence: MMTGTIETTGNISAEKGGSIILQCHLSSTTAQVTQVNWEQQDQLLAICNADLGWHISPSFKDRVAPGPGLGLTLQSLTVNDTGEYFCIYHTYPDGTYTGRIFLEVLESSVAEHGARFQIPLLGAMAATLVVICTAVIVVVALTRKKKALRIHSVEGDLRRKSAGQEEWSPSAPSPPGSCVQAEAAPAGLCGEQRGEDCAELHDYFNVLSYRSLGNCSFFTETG
Method: (§1) FIGS. 6A and 6B depict thermostability tested for representative clones. The VHH antibody samples were heated from 25 to 70° C. for 60 min. Binding of heated samples to human TIGIT was examined using ELISA or whole cell binding. […] Y axis represents OD450 obtained from the ELISA assay. X axis represents temperature for the treatment. […] Y axis represents percentage of binding to h-TIGIT. X axis represents temperature for the treatment.

[2] = target: T2, recombinant human TIGIT extra cellular domain (ECD) protein (human, UniProt Q495A1 22-138); test: ELISA on h-TIGIT ECD; VHH samples heated at 25 to 70 °C for 60 min (thermostability); concentration not given
T2 construct: Purchased protein; it begins with the signal peptide; also called h-TIGIT ECD; human TIGIT ECD
T2 sequence: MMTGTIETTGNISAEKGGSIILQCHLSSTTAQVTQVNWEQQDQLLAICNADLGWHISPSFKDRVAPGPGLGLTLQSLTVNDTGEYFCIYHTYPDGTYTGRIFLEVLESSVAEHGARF
Method: as §1

[3] = target: T1, human TIGIT stably expressed on cells …; test: whole cell binding
[4] = target: T1, human TIGIT stably expressed on cells …; test: flow cytometry, whole cell binding on h-TIGIT transfected Jurkat cells; anti-human IgG Fc AlexaFluor488 secondary
Method: The binding affinities of the humanized bivalent antibodies to human TIGIT were determined by whole cell binding to h-TIGIT stably expressed on Jurkat cells. Briefly, antibodies were incubated with h-TIGIT transfected Jurkat cells (0.2×10⁶/well in 100 μl) for 30 min in FACS buffer. The cells were washed once, then incubated with anti-human IgG Fc AlexaFluor488 (1:500).

[5] = target: T1, human TIGIT stably expressed on cells …; test: flow cytometry, whole cell binding on Jurkat cells stably expressing human TIGIT; Alexa Fluor 488 anti-human IgG Fc secondary
From the text: FIGS. 1A-1C depict whole cell binding of representative VHH bivalent antibodies to human TIGIT determined by flowcytometry assays. […] Y axis represents Mean Fluorescence Intensity of AlexaFlour 488. X axis represents antibody concentrations in nanomolar. […] FIG. 1C is a schematic of the structure of a TIGIT VHH bivalent antibody.
Jurkat cells stably expressing human TIGIT and NFAT reporter gene were established. Specifically, Jurkat cells were transfected with human TIGIT expression vector by electroporation, and cells stably expressing human TIGIT were selected by 1 μg/ml puromycin during cell culture. Representative antibody clones were incubated at different concentrations with h-TIGIT stably expressing Jurkat cells (0.2×10⁶/ml) in 100 μl/well in 96-well plate in FACS buffer (PBS with 1.5% FBS) for 30 min. After washing, Alexaflour 488 conjugated anti-human IgG Fc secondary antibody (Alexa Fluor® 488 AffiniPure Goat Anti-Human IgG, Fcγ fragment specific, Jackson labs, 1:500 dilution) was added and incubated for 30 min. After washing, mean fluorescence intensity was measured using CytoFlex (Beckman Coulter) by gating live cell population. Binding affinity was calculated using GraphPad Prism.

[6] = target: T1, human TIGIT stably expressed on cells …; test: cell-based or functional assay
[7] = target: T3, recombinant ECD of human FcγRIIB (human, UniProt P31994 43-217); test: Octet (ForteBio) biolayer interferometry; sensor loaded with recombinant ECD of human FcγRIIB; antibody at 5 concentrations (not given)
T3 construct: extracellular domain
T3 sequence (looked up): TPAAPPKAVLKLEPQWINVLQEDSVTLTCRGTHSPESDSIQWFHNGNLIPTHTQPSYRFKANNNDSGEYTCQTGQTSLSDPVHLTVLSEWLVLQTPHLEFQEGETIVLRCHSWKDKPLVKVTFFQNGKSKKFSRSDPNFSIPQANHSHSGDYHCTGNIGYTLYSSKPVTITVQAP
From the text: (§2) Y axis represents association, dissociation & Rmax. X axis represents time in second.

[8] = target: T4, recombinant ECD of mouse FcγRIV (mouse, UniProt A0A0B4J1G0 21-203); test: Octet (ForteBio) biolayer interferometry; sensor loaded with recombinant ECD of mouse FcγRIV; antibody at 5 concentrations (not given)
T4 sequence: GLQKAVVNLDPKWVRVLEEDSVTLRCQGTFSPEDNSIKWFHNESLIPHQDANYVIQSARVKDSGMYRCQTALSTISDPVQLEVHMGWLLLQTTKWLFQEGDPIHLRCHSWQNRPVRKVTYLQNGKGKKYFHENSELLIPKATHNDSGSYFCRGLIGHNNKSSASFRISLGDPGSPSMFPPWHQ
From the text: as §2

[9] = target: T5, recombinant ECD of human FcγRIIIA (human, UniProt P08637 17-208); test: Octet (ForteBio) biolayer interferometry; sensor loaded with recombinant ECD of human FcγRIIIA; antibody at 5 concentrations (not given)
T5 construct: extracellular domain
From the text: as §2

[10] = target: human FcγRIIIA on NFAT reporter Jurkat cells (human, UniProt P08637 17-254); test: cell-based or functional assay
[11] = target: T1, human TIGIT stably expressed on cells …; test: cell-based or functional assay; remark: listed apart in the source

Chain of human FcγRIIIA on NFAT reporter Jurkat cells (P08637 17-254): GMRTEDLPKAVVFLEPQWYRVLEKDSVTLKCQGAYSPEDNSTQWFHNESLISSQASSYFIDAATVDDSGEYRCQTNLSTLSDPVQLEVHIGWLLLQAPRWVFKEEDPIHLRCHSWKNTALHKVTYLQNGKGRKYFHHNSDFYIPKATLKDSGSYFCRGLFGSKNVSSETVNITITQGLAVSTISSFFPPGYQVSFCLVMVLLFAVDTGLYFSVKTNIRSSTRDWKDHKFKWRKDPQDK
T5 sequence (P08637 17-208): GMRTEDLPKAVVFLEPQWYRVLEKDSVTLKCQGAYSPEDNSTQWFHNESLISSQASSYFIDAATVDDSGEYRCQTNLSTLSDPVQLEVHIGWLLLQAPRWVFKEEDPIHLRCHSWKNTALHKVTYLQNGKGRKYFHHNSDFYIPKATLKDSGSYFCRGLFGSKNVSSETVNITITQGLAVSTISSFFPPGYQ

B1: 1A8 VHH (VHH)
VHH: QVQLVESGGGVVQPGRSLRLSCAASGPSFSSYPMGWFRQAPGKERESVAAISSRGRFTYYADSVKGRFTISRDNSKNTLYLQMNSLRAEDTAVYYCAARDSGSGYYSRAQWYDYWGQGTLVTVSS
notes: VHH in bacterial supernatant
binding result [1]: binds | binding result [2]: binds

B2: 2A3 ML_DE (2A3 with M to L in CDR2 and D to E in CDR3) (VHH)
VHH: B1 VHH with P27G, R54D, G55L, D100E, S103V
binding result [3]: binds

B3: 2A3 ML (2A3 with methionine to leucine in CDR2) (VHH)
VHH: B1 VHH with P27G, R54D, G55L, S103V
binding result [3]: binds

B4: 2A3 MI (2A3 with methionine to isoleucine in CDR2) (VHH)
VHH: B1 VHH with P27G, R54D, G55I, S103V
binding result [3]: binds

B5: 6F12 VHH (VHH)
VHH: B1 VHH with S30T, R54D, T58K, R99E
notes: VHH in bacterial supernatant
binding result [1]: binds | binding result [2]: binds

B6: 7F6 VHH (VHH)
VHH: B1 VHH with S28M, R54D, G55P
notes: VHH in bacterial supernatant
binding result [1]: binds | binding result [2]: binds

B7: 1G1-chimeric (llama VHH of 1G1 with human IgG1 CH2 and CH3 domains), bivalent (Fc fusion)
chain: QVQLVESGGGLVQAGDSLRLSCVASGPSFSSYPMGWFRQGPGKERESVAAISSDGRFTYYAASVKGRFTISKDNAKSAAFLQMNSLKPEDTAVYYCAARDSGSGYYSRAQWYDYWGQGTLVTVSS
notes: also called 1G1 chimeric clone; not shown: human IgG1 CH2 and CH3 domains
EC50 (read off the curve) [4]: ~80 pM | EC50 (read off the curve) [5]: ~100 pM | EC50 (read off the curve); NFAT luciferase reporter (RLU), h-TIGIT/NFAT Jurkat cells with PVR Raji cells and SEE [6]: ~1000 pM

B8: 1C12-chimeric (llama VHH of 1C12 with human IgG1 CH2 and CH3 domains), bivalent (Fc fusion)
chain: QVQLVESGGGLVQTGDSLRLSCAASSRIFSRYGMGWFRQAPGKEREFVAAISWNGASTTYTDSVKGRFTISRDSAENTTYLQINSLRPEDTAVYYCAADPWGAVKLGTAEYEYWGQGTQVTVSS
notes: also called 1C12 chimeric parental clone; not shown: human IgG1 CH2 and CH3 domains
EC50 (read off the curve) [4]: ~30 pM | EC50 (read off the curve) [5]: ~40 pM | EC50 (read off the curve); NFAT luciferase reporter (RLU), h-TIGIT/NFAT Jurkat cells with PVR Raji cells and SEE [6]: ~800 pM

B9: 2A3-LT-Fc VLPLL (Fc mutations L235V, F243L, R292P, Y300L and P396L) (Fc fusion)
chain: QVQLVESGGGVVQPGRSLRLSCAASGGSFSSYPMGWFRQAPGKERESVAAISSDLRFTYYADSVKGRFTISRDNSKNTLYLQMNSLRAEDTAVYYCAARTSGVGYYSRAQWYDYWGQGTLVTVSSEPKSCDKTHTCPPCPAPELVGGPSVFLLPPKPKDTLMISRTPEVTCVVVDVSHEDPEVKFNWYVDGVEVHNAKTKPPEEQYNSTLRVVSVLTVLHQDWLNGKEYKCKVSNKALPAPIEKTISKAKGQPREPQVYTLPPSREEMTKNQVSLTCLVKGFYPSDIAVEWESNGQPENNYKTTPLVLDSDGSFFLYSKLTVDKSRWQQGNVFSCSVMHEALHNHYTQKSLSLSPGK
notes: also called VLPLL mutant; VPVLL (as printed once)
binding result [7]: binds | binding result [8]: binds | binding result [9]: binds

B10: 2A3-LT-Fc-DLE (Fc mutations S239D, A330L and I332E) (Fc fusion)
chain: B9 chain with V145L, S149D, L153F, P202R, L210Y, A240L, I242E, L306P
notes: also called DLE mutant
binding result [7]: binds | EC50 (nM), FcγRIIIA-mediated NFAT luciferase reporter activity, Average [10]: 0.024 nM | EC50 (nM), FcγRIIIA-mediated NFAT luciferase reporter activity, Exp 1 [10]: 0.027 nM | EC50 (nM), FcγRIIIA-mediated NFAT luciferase reporter activity, Exp 2 [10]: 0.0295 nM | EC50 (nM), FcγRIIIA-mediated NFAT luciferase reporter activity, Exp 3 [10]: 0.018 nM | EC50 (nM), FcγRIIIA-mediated NFAT luciferase reporter activity, Exp 4 [10]: 0.02 nM | binding result [8]: binds | EC50 (nM), TIGIT blockade NFAT luciferase reporter assay, Average [11]: 0.97 nM | EC50 (nM), TIGIT blockade NFAT luciferase reporter assay, Exp 1 [11]: 0.67 nM | EC50 (nM), TIGIT blockade NFAT luciferase reporter assay, Exp 2 [11]: 0.92 nM | EC50 (nM), TIGIT blockade NFAT luciferase reporter assay, Exp 3 [11]: 1.32 nM
